{"source": "FireProtDB (doi:10.1006/jmbi.1998.1906)", "proteins": {"B1": {"name": "Lysozyme C wild type, P61626 (protein)", "chain": "MKALIVLGLVLLSVTVQGKVFERCELARTLKRLGMDGYRGISLANWMCLAKWESGYNTRATNYNAGDRSTDYGIFQINSRYWCNDGKTPGAVNACHLSCSALLQDNIADAVACAKRVVRDPQGIRAWVAWRNRCQNRDVRQYVQGCGV"}}, "settings": "Homo sapiens, Thermal, DSC, glycine 0.05 M, reversible: yes, whole UniProt chain shown", "data": [{"protein": "B1", "values": [{"measurement": "Tm", "setting": "pH 2.53", "value": 45.5, "unit": "°C"}, {"measurement": "unfolding enthalpy (calorimetric)", "setting": "pH 2.53", "value": 75.4, "unit": "kcal/mol"}, {"measurement": "unfolding enthalpy (van 't Hoff)", "setting": "pH 2.53", "value": 79.8, "unit": "kcal/mol"}, {"measurement": "Tm", "setting": "pH 2.7", "value": 49.2, "unit": "°C"}, {"measurement": "unfolding enthalpy (calorimetric)", "setting": "pH 2.7", "value": 82.5, "unit": "kcal/mol"}, {"measurement": "unfolding enthalpy (van 't Hoff)", "setting": "pH 2.7", "value": 85.4, "unit": "kcal/mol"}, {"measurement": "Tm", "setting": "pH 2.81", "value": 52, "unit": "°C"}, {"measurement": "unfolding enthalpy (calorimetric)", "setting": "pH 2.81", "value": 85.9, "unit": "kcal/mol"}, {"measurement": "unfolding enthalpy (van 't Hoff)", "setting": "pH 2.81", "value": 89.2, "unit": "kcal/mol"}, {"measurement": "Tm", "setting": "pH 3.04", "value": 55.4, "unit": "°C"}, {"measurement": "unfolding enthalpy (calorimetric)", "setting": "pH 3.04", "value": 91.6, "unit": "kcal/mol"}, {"measurement": "unfolding enthalpy (van 't Hoff)", "setting": "pH 3.04", "value": 95, "unit": "kcal/mol"}, {"measurement": "Tm", "setting": "pH 3.14", "value": 57.8, "unit": "°C"}, {"measurement": "unfolding enthalpy (calorimetric)", "setting": "pH 3.14", "value": 96.4, "unit": "kcal/mol"}, {"measurement": "unfolding enthalpy (van 't Hoff)", "setting": "pH 3.14", "value": 97.4, "unit": "kcal/mol"}]}]}
